Assay results published in patent publication CN115716874A (SHENZHEN ZHUORUN BIOTECHNOLOGY CO LTD, dated 2023).

Target: T1, AFP-L3与凝集素复合物 (Lens culinaris, UniProt P02870 31-210; P02870 218-269, limits assumed)
T1 construct: Non-covalent complex of recombinant AFP (AFP-L3 glycoform) with lentil lectin, mass ratio AFP-L3:lectin 1:5; immobilised on a CM5 chip for SPR; Native LCA consists of processed alpha and beta chains; also called AFP-L3与LCA复合物; AFP-L3-LCA复合物
T1 sequence 1: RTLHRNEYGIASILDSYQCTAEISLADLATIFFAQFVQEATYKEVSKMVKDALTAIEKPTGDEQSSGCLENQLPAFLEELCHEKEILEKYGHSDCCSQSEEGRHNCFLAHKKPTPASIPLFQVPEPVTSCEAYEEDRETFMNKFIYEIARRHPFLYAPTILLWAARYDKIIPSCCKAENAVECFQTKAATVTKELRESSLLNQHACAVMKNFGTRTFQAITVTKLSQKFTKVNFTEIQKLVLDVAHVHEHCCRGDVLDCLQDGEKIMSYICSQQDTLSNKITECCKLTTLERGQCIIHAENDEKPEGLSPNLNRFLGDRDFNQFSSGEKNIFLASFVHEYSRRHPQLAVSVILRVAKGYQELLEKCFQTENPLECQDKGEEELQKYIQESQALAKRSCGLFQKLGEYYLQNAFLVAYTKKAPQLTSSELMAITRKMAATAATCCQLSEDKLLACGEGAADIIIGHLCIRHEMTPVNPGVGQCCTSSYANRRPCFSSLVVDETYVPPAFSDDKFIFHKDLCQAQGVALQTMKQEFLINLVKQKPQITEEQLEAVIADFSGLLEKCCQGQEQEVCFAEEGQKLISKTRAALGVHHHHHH
T1 sequence 2: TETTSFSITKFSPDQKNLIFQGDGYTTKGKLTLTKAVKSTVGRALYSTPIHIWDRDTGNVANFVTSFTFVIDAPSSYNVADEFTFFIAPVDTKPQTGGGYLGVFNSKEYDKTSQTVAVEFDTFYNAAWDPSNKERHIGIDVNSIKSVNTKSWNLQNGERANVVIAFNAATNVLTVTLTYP
T1 sequence 3: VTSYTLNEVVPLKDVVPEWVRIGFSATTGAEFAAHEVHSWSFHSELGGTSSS
Test: SPR, Biacore T200, complex immobilised on CM5 chip, antibody as analyte

- Kd: 2.66 nM
B1: Ab-03 (antibody, mouse IgG1, kappa, V domains shown)
VH: QVQLQQSGPEVVRPGVSVKISCKGSGYTFTDYAMQWVKQSHAKSLEWIGVISTYNGNTNYNQKFKGKATMTVDKSSSTAYMELARLTSEDSAIYYCARSLYYGSSPYAMDYWGQGTSVTVSS
VL: DIVMSQSPSSLAVSAGEKVTMSCKSSQSLLNSRTRKNYLAWYQQKPGQSPKLLIYWASTRESGVPDRFTGSGSGTDFTLTISSVQAEDLAVYYCKQSYNLFTFGSGTKLEIKR
notes: Mouse hybridoma antibody from ascites, Protein A purified; also called 针对AFP-L3与凝集素复合物的单克隆抗体; Ab-03抗体株
